Results on two molecules are retold here after patent publication US20040091911, “Recombinant type II restriction endonucleases, MmeI and related endonucleases and methods for producing the same” (published 2004).

The target in data set [1] is T1, MmeI (Methylophilus methylotrophus).
T1 chain: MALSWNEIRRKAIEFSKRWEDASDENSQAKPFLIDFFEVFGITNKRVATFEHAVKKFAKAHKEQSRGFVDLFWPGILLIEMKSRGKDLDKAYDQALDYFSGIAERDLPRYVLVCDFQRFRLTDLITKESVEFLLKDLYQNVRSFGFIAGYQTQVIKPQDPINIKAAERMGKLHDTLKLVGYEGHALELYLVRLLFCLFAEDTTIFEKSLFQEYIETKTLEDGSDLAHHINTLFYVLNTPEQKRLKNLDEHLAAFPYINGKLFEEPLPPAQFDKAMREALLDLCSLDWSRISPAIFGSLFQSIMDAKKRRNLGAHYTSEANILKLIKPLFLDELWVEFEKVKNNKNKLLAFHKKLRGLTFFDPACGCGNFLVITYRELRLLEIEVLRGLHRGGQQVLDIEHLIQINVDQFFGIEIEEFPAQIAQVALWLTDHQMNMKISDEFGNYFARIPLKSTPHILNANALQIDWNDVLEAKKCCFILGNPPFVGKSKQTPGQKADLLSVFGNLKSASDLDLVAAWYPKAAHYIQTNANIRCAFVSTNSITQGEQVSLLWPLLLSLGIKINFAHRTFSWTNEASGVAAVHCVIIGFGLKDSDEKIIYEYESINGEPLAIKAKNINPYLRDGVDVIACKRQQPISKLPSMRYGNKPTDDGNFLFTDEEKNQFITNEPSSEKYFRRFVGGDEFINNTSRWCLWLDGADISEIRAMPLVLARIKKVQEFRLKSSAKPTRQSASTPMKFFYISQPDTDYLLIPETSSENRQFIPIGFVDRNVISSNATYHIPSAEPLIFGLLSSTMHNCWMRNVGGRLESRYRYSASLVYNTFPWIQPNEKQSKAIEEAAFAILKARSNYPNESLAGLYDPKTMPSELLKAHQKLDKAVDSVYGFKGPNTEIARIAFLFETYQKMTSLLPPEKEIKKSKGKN
Kind of data set: methyltransferase activity; 3H-SAM incorporation. Particulars: preparation used with the oligos not specified; label: 5'-FAM both strands.

Data set [2] deals with T1, MmeI. The experiment in a line: methyltransferase activity on top strand; 3H-SAM incorporation. Particulars: preparation used with the oligos not specified; label: 5'-FAM both strands.

B1: oligo1+oligo2 unmethylated (dsDNA)
DNA 1: GTTTGAAGACTCCGACGCGATGGCCAGCGATCGGCGCCTCAGCTTTTG
DNA 2: CAAAAGCTGAGGCGCCGATCGCTGGCCATCGCGTCGGAGTCTTCAAAC
On to B1, for which, in the data set with MmeI [1], the activity is over 10 fold over background.

B2: oligo1+oligo4 bottom methylated (dsDNA)
DNA 1: B1 DNA 1
DNA 2: B1 DNA 2
modifications: 6mA in bottom strand at GTCGG(6mA) (position 38)
B2: in the data set with MmeI [2], the activity is over 10 fold over background.
